Data on one molecule can be found in PMC3577912, “A Novel Role for Arabidopsis CBL1 in Affecting Plant Responses to Glucose and Gibberellin during Germination and Seedling Development” (PLoS ONE, 2013).

The target of the assay is T1, His-AKINβ1 fusion protein (Arabidopsis thaliana, UniProt Q84VQ1 1-283).
T1 construct: AKINβ1, β regulatory subunit of SnRK1, Arabidopsis thaliana, AT5G21170; also called pET-AKINβ1; His-tagged AKINβ1
T1 sequence (looked up): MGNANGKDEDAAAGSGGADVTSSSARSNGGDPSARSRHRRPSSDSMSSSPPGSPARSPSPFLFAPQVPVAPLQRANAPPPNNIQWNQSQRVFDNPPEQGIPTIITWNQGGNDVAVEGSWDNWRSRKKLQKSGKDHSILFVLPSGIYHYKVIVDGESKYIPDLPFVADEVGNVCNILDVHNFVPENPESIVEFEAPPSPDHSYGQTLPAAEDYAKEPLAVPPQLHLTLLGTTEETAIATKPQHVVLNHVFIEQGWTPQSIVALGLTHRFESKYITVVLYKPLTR
Put plainly: pull-down; about 5 µg GST-CBL1 immobilised on Glutathione-Sepharose 4B beads, incubated with His-AKINβ1 overnight at 4°C, washed five times with ice-cold PBS, Western blot with anti-His antibody. The following applies: both partners purified. A general note: Immunoblotting shows a protein as a band on a membrane.

B1: GST-CBL1 fusion protein (natural protein)
chain: not shown
notes: Calcineurin B-like protein 1 (CBL1), Arabidopsis thaliana, AT4G17615; also called pGEX-CBL1; glutathione S-transferase (GST)-CBL1; source: E. coli BL21 (DE3), purified (Glutathione Sepharose)
On to B1, for which the binding result was “binds”.
